The values that follow come from patent US20220135694A1, “NOVEL CD40-BINDING ANTIBODIES” (LAVA THERAPEUTICS B.V., priority 2019, published 2022).

The test system of data set [1] is CD40+ CII target cells. Put plainly: Cytotoxicity assay: CII target cells with Vγ9Vδ2-T cells. The note with it: 1:1 ratio. Type of data set: cell-based, human. As to the method:
CD40^+ CII cells and Vγ9Vδ2-T cells were grown as described in Example 7.
CII target cells were labeled with carboxyfluorescein succinimidyl ester (CFSE; C1157, Thermo Fisher Scientific) and incubated with VHH or medium control for 30 minutes at 37° C. Target cells were then cocultured overnight with Vγ9Vδ2-T cell lines in a 1:1 ratio.
Viability was measured as described in Example 4.

Data set [2] relates to CD40-stimulated CLL cells. Put plainly: Cytotoxicity against CLL cells cultured on 3T3 or CD40L+ 3T40L fibroblasts. The class given is cell-based, human. The settings on record: with Vγ9Vδ2-T cells 1:1, V19S76K-5C8 100 nM; 3T3 versus 3T40L; FIG. 14. As to the method:
Primary CLL cells were obtained, cryopreserved and thawed as described in Example 3. 3T3 fibroblasts, either WT or transfected with human CD40L (3T40L), were grown in complete IMDM. Vγ9Vδ2-T cells were grown as described in Example 7.
Primary CLL cells were cultured for 72 hours on irradiated 3T3 or 3T40L fibroblasts to induce CD40 stimulation.
Cells were then harvested and cultured overnight either with venetoclax (10 nM) as described in Example 10, or with Vγ9Vδ2-T cells and V19S76K-5C8 as described in Example 12. Viability measurement and flow cytometry were performed as described in Example 10.

In data set [3] the target is T1, CD40 (Homo sapiens, UniProt P25942).
T1 construct: Primary chronic lymphocytic leukemia (CLL) cells express CD40 on the cell surface; endogenous in cells; host or cells: primary CLL PBMCs from untreated CLL patients
T1 sequence (P25942 21-277): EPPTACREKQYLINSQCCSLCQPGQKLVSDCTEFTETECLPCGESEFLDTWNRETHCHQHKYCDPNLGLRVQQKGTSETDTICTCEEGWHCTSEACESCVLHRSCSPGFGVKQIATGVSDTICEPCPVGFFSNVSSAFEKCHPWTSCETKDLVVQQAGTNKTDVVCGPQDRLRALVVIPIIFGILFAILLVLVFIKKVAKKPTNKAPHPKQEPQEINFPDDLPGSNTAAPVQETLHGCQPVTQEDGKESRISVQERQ
Put plainly: CD40 agonistic activity in primary CLL cells, 48 h, flow cytometry. Type of data set: cell-based. The settings on record: FIG. 7A-C. The method, then: PBMCs (≥90% CD5^+CD19^+) from untreated CLL patients were obtained and cryopreserved as described in Example 3. Thawed cells were kept in complete IMDM.
To assess whether binding of the VHH to CD40 has agonistic effects, primary CLL PBMCs were cultured for 48 hours in the presence of VHH, medium control or recombinant multimeric CD40 ligand (rmCD40L; 100 ng/mL, Bioconnect).
After 48 hours, cells were harvested, washed and incubated with AF700-conjugated anti-CD19 (557921), FITC-conjugated anti-CD80 (6109965), APC-conjugated anti-CD86 (555660, all BD Biosciences), PE-conjugated anti-CD5 (12-0059-42, Thermo Fisher Scientific) and PECy7-conjugated anti-CD95 (305621, Biolegend, San Diego, Calif., USA) antibodies for 20 minutes at 4° C. Alternatively, after 48 hours, cells were harvested and viability was measured using Mitotracker Orange (25-minute incubation at 37° C.) and To-pro-3 (10-minute incubation at room temperature; both Thermo Fisher Scientific). Samples were measured on a FACSCanto cytometer (BD Biosciences) and analyzed with Flowjo MacV10.
To assess whether binding of the VHH has agonistic effects, primary CLL PBMCs were cultured with the indicated concentrations of V19S76K-5C8, medium control or rmCD40L for 48 hours and analyzed by flow cytometry as described in Example 4.

The test system of data set [4] is primary MM cells. Briefly: Lysis of primary multiple myeloma cells by healthy donor-derived Vγ9Vδ2-T cells. Type of data set: cell-based, human. The note with it: overnight with healthy donor-derived Vγ9Vδ2-T cells, 1:1; FIG. 17B. The method, then: FIG. 17: V19S76K-5C8 is active against primary multiple myeloma. (A) Example of CD40 expression on primary MM cells, as detected using anti-CD40 PE antibody, clone MAB89, Beckman Couter, IM1936U. Representative histograms of 4 donors (B) Bone marrow of MM patients was cultured overnight in the presence or absence of healthy donor-derived Vγ9Vδ2-T cells in a 1:1 (Vγ9Vδ2-T:plasma cell) ratio in the absence or presence of V19S76K-5C8 (10 μM or 10 nM). Live plasma cells were quantified by flow cytometry using counting beads (n=5). (C, D) Mononuclear cells from the bone marrow of MM patients were cultured overnight with V19S76K-5C8 (VHH; 10 nM), aminobisphosphonate (ABP; 10 μM zoledronic acid (positive control)) or medium control in the presence of brefeldin, monensin and anti-CD107a to measure (C) cytokine production and (D) degranulation by flow cytometry (n=6). Data are presented as mean and SEM. *P<0.05, **P<0.01. (B-D: repeated-measures one-way ANOVA followed by Dunnett's post hoc test compared to condition without antibody).
Because CD40 is also expressed on primary multiple myeloma (MM) cells (Pellat-Deceunynck et al. (1994) Blood 84:2597) (FIG. 17A) and CD40 stimulation exerts various biological effects, including proliferation of MM cells, we assessed the efficacy of V19S76K-5C8 in primary bone marrow samples from MM patients.

Data set [5] has as its target T2, human CD40 (CD40-transfected HEK293T cells) (Homo sapiens, UniProt P25942).
T2 construct: expressed in transfected cells; host or cells: HEK293T
Briefly: Bispecific VHH binding to CD40-transfected HEK293T cells, anti-llama IgG flow cytometry. The note with it: 1 μM; FIG. 5. The method, then: The embryonic kidney cell line HEK293T, either wildtype (WT) or transfected with human CD40, was grown in complete DMEM.
To assess VHH binding, cells were incubated with V19S76K-5C8 (1 μM) or medium control for 30 minutes at 37° C. Bound VHH was detected by incubation with FITC-conjugated goat-anti-llama IgG-heavy and light chain antibodies (A160-100F, Bethyl Laboratories Inc., Montgomery, Tex., USA) for 20 minutes at 4° C.
After 48 hours, cells were analyzed by flow cytometry as described in Example 2.

Data set [6] deals with T1, CD40. Put plainly: CD40 antagonistic activity in primary CLL cells: pre-incubation, then rmCD40L for 48 h. Type of data set: cell-based. The settings on record: pre-incubation, then rmCD40L for 48 hours; FIG. 8A-C. As to the method: PBMCs (≥90% CD5^+CD19^+) from untreated CLL patients were obtained and cryopreserved as described in […]. Thawed cells were kept in complete IMDM.
To test whether the VHH antagonizes CD40 stimulation, primary CLL PBMCs were pre-incubated with VHH or medium control for 30 minutes at 37° C. and subsequently cultured for 48 hours in the presence of rmCD40L (100 ng/mL).
After 48 hours, cells were analyzed by flow cytometry as described in Example 4.
To assess whether binding of the VHH has antagonistic effects, primary CLL PBMCs were pre-incubated with V19S76K-5C8 or medium control and then cultured with rmCD40L for 48 hours and analyzed by flow cytometry as described in Example 5.

Data set [7] relates to primary CLL cells. Briefly: Venetoclax sensitivity and Bcl-xL expression of rmCD40L-stimulated primary CLL cells. The class given is cell-based, human. The note with it: V19S76K-5C8 1000 nM before rmCD40L 48 h.

T2 sequence (P25942 21-277): as above

B1: V19S76K-5C8: tag-less bispecific anti-CD40-anti-Vγ9Vδ2-TCR VHH, SEQ ID NO:23 (protein)
VHH: QVQLQESGGGLVQAGGSLRLSCAASGRTFGRSAMGWFRQAPGKEREFVAAIGTRGGSTKYADSVKGRFTISTDNAKNTVYLQMDSLKPEDTAVYRCAVRGPGYPSAAIFQDEYHYWGQGTQVTVSSGGGGSEVQLVESGGGLVQAGGSLRLSCAASGRPFSNYAMGWFRQAPGKEREFVAAISWSGGSTSYADSVKGRFTISRDNAKNTVYLQMNSPKPEDTAIYYCAAQFSGADYGFGRLGIRGYEYDYWGQGTQVTVSS
modifications: antibody sequence
Regarding B1, the EC50 in data set [1] (lysis of CII target cells with Vγ9Vδ2-T cells, FIG. 11B, read-out: half maximal effective concentration) amounted to 9.1 µM. For the same molecule, the “lysis of CII target cells” value in data set [1] (overnight with Vγ9Vδ2-T cells, FIG. 11A) is given as “increased markedly”. Also, the “cytotoxicity in unstimulated versus CD40-stimulated CLL cells” value in data set [2] was “induced cytotoxicity in unstimulated and CD40-stimulated CLL cells to a similar extent”. In addition, in data set [3], the “CD40 stimulation (expression of CD80, CD86 and CD95)” value was “none of the V19S76K-5C8 concentrations tested increased the expression of CD80, CD86 or CD95”. Further, the “lysis of primary MM cells” value in data set [4] is “lysed primary MM cells”. The “binding to CD40-expressing HEK293T cells” value in data set [5] is on record as “binds to the CD40-expressing HEK293T cells”. In addition, in data set [6], the “prevention of the effects of CD40 stimulation (CD80, CD86 and CD95 expression)” value is on record as “prevented the effects of CD40 stimulation in a dose-dependent manner”. The “sensitivity to venetoclax of rmCD40L-stimulated primary CLL cells” value in data set [7] (then venetoclax 24 h, FIG. 9A) was “as sensitive to venetoclax as unstimulated CLL cells”. Also, the Bcl-xL expression result in data set [7] (FIG. 9B) is listed as “returned to unstimulated levels”.
